Where two headings read alike, the source gives them in different places.
Columns and labels:
Assay in all cases: cell-based or functional assay
[1] = biological target: APRIL+BAFF (15 nM APRIL+10 nM BAFF) in combination
[2] = biological target: recombinant human APRIL (Tonbo Biosciences) (human) (UniProt O75888)
[3] = biological target: APRIL+BAFF (15 nM APRIL+10 nM BAFF) in combination; remark: listed apart in the source

Chain of recombinant human APRIL (Tonbo Biosciences) (human) (O75888 105-250 limits assumed): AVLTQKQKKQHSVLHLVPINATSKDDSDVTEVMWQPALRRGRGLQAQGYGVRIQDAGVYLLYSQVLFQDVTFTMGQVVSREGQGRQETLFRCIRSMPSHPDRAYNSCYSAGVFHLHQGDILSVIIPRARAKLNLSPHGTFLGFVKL

IC50 (pM) BAFF + APRIL [1] | IC50 (pM) APRIL [2] | IC50 (pM) BAFF + APRIL [3] | Binder
> 100000 pM | – | – | belimumab, anti-BAFF monoclonal antibody (antibody, INN chains, looked up, V domains shown) VH: QVQLQQSGAEVKKPGSSVRVSCKASGGTFNNNAINWVRQAPGQGLEWMGGIIPMFGTAKYSQNFQGRVAITADESTGTASMELSSLRSEDTAVYYCARSRDLLLFPHHALSPWGRGTMVTVSS VL: SSELTQDPAVSVALGQTVRVTCQGDSLRSYYASWYQQKPGQAPVLVIYGKNNRPSGIPDRFSGSSSGNTASLTITGAQAEDEADYYCSSRDSSGNHWVFGGGTELTVLG
– | – | 7720 pM | atacicept (WT TACI-Fc sequences corresponding to atacicept, containing WT TACI 30-110; SEQ ID NO:132) (Fc fusion) AMRSCPEEQYWDPLLGTCMSCKTICNHQSQRTCAAFCRSLSCRKEQGKFYDHLLRDCISCASICGQHPKQCAYFCENKLRSEPKSSDKTHTCPPCPAPEAEGAPSVFLFPPKPKDTLMISRTPEVTCVVVDVSHEDPEVKFNWYVDGVEVHNAKTKPREEQYNSTYRVVSVLTVLHQDWLNGKEYKCKVSNKALPSSIEKTISKAKGQPREPQVYTLPPSRDELTKNQVSLTCLVKGFYPSDIAVEWESNGQPENNYKTTPPVLDSDGSFFLYSKLTVDKSRWQQGNVFSCSVMHEALHNHYTQKSLSLSPGK

The remaining lines, values behind:

Binder | IC50 (pM) BAFF + APRIL [1] | IC50 (pM) APRIL [2] | IC50 (pM) BAFF + APRIL [3]
anti-APRIL mAb BION-1301 (antibody, INN chains, looked up, V domains shown) VH: QVQLVQSGAEVKKPGASVKVSCKASGYTFTDYTIHWVRQATGQGLEWMGWIYPLRGSINYAQKFQGRVTMTADKSISTVYMELSSLRSEDTAVYFCARHGAYYSNAFDYWGQGTLVTVSS VL: EIVMTQSPATLSVSPGERATLSCRASESVDNDGIRFLHWYQQKPGQAPRLLIYRASTRATGIPARFSGSGSRTEFTLTISSLQSEDFAVYYCQQSNKDPYTFGGGTKVEIK | > 100000 pM | 4900 pM | –
26 TACI CRD2-Fc (TACI vTD SEQ ID NO:26, K77E/F78Y/Y102D; Fc fusion SEQ ID NO: 167) (Fc fusion) SLSCRKEQGEYYDHLLRDCISCASICGQHPKQCADFCENKLRSGSGGGGSEPKSSDKTHTCPPCPAPEAEGAPSVFLFPPKPKDTLMISRTPEVTCVVVDVSHEDPEVKFNWYVDGVEVHNAKTKPREEQYNSTYRVVSVLTVLHQDWLNGKEYKCKVSNKALPAPIEKTISKAKGQPREPQVYTLPPSRDELTKNQVSLTCLVKGFYPSDIAVEWESNGQPENNYKTTPPVLDSDGSFFLYSKLTVDKSRWQQGNVFSCSVMHEALHNHYTQKSLSLSPG | – | – | 1390 pM
